# Reference: patent US20130064834A1 (published 2013)
# T1: human PCSK1, myc-myc-his tagged (human, UniProt P29120 111-753, limits assumed)
# T1 construct: also called hPCSK1-mmh; hPCSK1
# T1 sequence: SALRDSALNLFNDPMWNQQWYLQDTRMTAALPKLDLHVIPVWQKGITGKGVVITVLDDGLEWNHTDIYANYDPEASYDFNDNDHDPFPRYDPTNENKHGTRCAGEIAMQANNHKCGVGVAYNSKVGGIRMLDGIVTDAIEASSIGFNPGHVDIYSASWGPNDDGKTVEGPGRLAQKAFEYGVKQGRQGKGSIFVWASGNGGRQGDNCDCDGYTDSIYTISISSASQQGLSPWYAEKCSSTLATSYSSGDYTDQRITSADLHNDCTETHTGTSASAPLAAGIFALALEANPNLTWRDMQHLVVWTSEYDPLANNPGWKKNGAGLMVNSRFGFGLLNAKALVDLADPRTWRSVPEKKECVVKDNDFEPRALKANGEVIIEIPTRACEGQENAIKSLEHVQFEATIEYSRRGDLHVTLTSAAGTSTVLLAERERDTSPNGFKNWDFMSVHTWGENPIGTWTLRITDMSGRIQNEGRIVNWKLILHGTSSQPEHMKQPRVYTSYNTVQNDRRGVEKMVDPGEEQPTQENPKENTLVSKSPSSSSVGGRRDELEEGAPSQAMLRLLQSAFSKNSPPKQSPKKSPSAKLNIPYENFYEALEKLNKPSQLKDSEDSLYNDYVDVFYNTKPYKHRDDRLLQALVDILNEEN
# B1: H1H316P (antibody, V domains shown)
# VH: EVQLVESGGGLVQPGGSLRLSCAASGFTFNNYAMNWVRQAPGKGLDWVSTISGSGGTTNYADSVKGRFIISRDSSKHTLYLQMNSLRAEDTAVYYCAKDSNWGNFDLWGRGTLVTVSS
# VL: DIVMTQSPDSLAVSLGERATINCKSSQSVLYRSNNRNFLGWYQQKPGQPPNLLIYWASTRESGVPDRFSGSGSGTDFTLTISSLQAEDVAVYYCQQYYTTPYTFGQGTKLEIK
# notes: Fully human mAb made in CHO cells; also called mAb316P
# B2: H1M300N (antibody, V domains shown)
# VH: EMQLVESGGGLVQPGGSLRLSCAASGFTFSSHWMKWVRQAPGKGLEWVANINQDGSEKYYVDSVKGRFTISRDNAKNSLFLQMNSLRAEDTAVYYCARDIVLMVYDMDYYYYGMDVWGQGTTVTVSS
# VL: not shown
# notes: Fully human version made in CHO cells
# Columns and labels:
# [1] = target: T2, tagged rhesus monkey (Macaca mulata) PCSK9 (rhesus monkey (Macaca mulata), UniProt A8T666 31-692); experiment: SPR, 25C
# T2 construct: also called mmPCSK9-mmh; mmPCSK9
# [2] = target: T3, rat (Rattus norvegicus) PCSK9, myc-myc-his tagged (rat (Rattus norvegicus), UniProt P59996 31-691); experiment: SPR, mAb amine-coupled, 37C, pH 5.5
# T3 construct: also called rPCSK9-mmh; rPCSK9
# Description: (§1) Briefly, mAbs were immobilized onto BIACORE™ CM5 sensor chips via amine coupling.
# [3] = target: T4, mouse PCSK9, myc-myc-his tagged (mouse, UniProt Q80W65 35-694); experiment: SPR, mAb amine-coupled, 37C, pH 5.5
# T4 construct: also called mPCSK9-mmh; mPCSK9
# Description: as §1
# Human PCSK9-myc-myc-his = target: T5, Human PCSK9-myc-myc-his (human, UniProt Q8NBP7 31-692); experiment: SPR, mAb captured, 37C
# T5 construct: also called hPCSK9-mmh; hPCSK9
# Protocol: Each selected antibody was captured at a flowrate of 2 μl/min for 6 min on a goat anti-human IgG polyclonal antibody surface created through direct chemical coupling to a BIACORE™ chip to form a captured antibody surface.
# [4] = target: T1, human PCSK1, myc-myc-his tagged; experiment: SPR, mAb captured on anti-hFc, 25C
# T2 sequence (A8T666 31-692 limits assumed): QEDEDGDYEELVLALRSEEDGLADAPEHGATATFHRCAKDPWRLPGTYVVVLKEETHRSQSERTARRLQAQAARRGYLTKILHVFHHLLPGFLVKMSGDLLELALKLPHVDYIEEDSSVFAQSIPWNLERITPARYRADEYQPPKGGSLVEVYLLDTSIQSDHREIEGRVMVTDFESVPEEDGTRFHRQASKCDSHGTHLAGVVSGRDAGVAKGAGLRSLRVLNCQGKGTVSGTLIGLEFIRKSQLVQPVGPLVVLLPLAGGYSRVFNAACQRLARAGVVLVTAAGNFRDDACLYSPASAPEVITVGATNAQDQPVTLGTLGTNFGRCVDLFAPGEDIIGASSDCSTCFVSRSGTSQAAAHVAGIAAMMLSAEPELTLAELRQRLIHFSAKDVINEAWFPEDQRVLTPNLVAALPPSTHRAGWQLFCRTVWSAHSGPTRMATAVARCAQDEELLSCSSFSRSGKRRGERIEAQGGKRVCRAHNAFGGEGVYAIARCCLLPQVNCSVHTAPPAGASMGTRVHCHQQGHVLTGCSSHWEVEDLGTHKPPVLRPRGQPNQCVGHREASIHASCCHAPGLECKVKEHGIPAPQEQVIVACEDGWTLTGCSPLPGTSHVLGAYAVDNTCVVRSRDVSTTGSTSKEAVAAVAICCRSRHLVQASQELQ
# T3 sequence (P59996 31-691 limits assumed): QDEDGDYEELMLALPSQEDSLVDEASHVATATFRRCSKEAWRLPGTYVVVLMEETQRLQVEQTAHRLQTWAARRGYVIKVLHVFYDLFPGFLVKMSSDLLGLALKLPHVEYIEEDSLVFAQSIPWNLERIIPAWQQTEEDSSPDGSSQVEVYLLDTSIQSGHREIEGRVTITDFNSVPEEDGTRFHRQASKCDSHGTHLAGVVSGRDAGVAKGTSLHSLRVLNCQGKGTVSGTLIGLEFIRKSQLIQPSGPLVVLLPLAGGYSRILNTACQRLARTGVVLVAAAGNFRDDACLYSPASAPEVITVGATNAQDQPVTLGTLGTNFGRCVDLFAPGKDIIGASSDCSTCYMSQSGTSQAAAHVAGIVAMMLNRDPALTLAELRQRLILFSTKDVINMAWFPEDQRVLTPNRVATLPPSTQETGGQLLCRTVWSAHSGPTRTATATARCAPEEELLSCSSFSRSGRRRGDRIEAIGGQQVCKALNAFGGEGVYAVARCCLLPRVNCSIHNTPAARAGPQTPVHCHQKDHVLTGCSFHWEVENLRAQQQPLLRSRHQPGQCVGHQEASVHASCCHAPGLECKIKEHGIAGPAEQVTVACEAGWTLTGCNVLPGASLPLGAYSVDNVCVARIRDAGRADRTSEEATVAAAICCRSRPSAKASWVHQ
binding result [4],Binder,T1/2 [1] [min],koff [1] [s⁻¹],Kd [2] [nM],T1/2 [2] [min],Kd [3] [nM],T1/2 [3] [min],Kd (Human PCSK9-myc-myc-his) [nM],T1/2 (Human PCSK9-myc-myc-his) [min]
,B1,51,0.000229,0.399,1,13.6,3,1.08,11
no binding (tested: 100 nM),B2,,,,,,,,
